Test results from patent US20240132603A1 (HARBOUR BIOMED US, published 2024).

Assays:
[1] = biological target: T1, CD147; assay: flow cytometry, HEK293-CD147 cells
T1 construct: also called HEK293-CD147

[2] = biological target: T2, cynomolgus monkey CCR8 (cynomolgus monkey, UniProt G7NYJ2 1-355); assay: FACS, CHO-K1-CynoCCR8 cells
T2 construct: whole, on cells; also called CynoCCR8
Outline: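 Anti-CCR8 antibodies titrated in 5-fold steps from 200 nM onto 1E6 cells/mL CHO-K1-CynoCCR8 in DPBS/2% FBS, 1 h at 4 °C. Bound antibody detected with 1:1000 secondary antibody, 40 min at 4 °C, then flow cytometry.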

[3] = biological target: T3, TSPAN12-FLAG (UniProt O95859 1-305); assay: flow cytometry, HEK293-TSPAN12 cells
T3 construct: whole, on cells; order of protein and tag unknown; also called HEK293-TSPAN12; not shown: FLAG tag
T3 sequence (looked up): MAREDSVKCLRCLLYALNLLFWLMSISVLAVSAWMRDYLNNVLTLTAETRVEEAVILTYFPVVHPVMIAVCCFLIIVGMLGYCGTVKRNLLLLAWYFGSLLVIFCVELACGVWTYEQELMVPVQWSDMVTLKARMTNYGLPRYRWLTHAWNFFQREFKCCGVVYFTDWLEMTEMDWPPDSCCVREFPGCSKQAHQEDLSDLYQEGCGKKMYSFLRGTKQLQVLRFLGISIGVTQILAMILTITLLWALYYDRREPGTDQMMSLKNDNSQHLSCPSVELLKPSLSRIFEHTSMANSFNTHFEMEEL
Description: After that, HEK293 cells were transfected with commercial MMP16 (protein information can be found under Uniprot P51512), CD40LG (protein information can be found under Uniprot P29965), CD147 (protein information can be found under Uniprot P35612), TSPAN4 (protein information can be found under Uniprot 014817), and TSPAN12 (protein information can be found under Uniprot 095859) plasmids for further verification of the binding of PR005565, PR006275 and PR006276 to these proteins. […] However, the binding values of PR005565, PR006275 and PR006276 to MMP16, CD40LG, CD147, TSPAN4 and TSPAN12 after transfection of HEK293 cells were all consistent with the signal values of HEK293 cells themselves. Thus, PR005565, PR006275 and PR006276 had no non-specific binding to MMP16, CD40LG, CD147, TSPAN4 and TSPAN12 proteins (see Table 50).

[4] = biological target: T4, CD40LG (UniProt P29965 1-261); assay: flow cytometry, HEK293-CD40LG cells
T4 construct: whole, on cells; also called HEK293-CD40LG
T4 sequence (looked up): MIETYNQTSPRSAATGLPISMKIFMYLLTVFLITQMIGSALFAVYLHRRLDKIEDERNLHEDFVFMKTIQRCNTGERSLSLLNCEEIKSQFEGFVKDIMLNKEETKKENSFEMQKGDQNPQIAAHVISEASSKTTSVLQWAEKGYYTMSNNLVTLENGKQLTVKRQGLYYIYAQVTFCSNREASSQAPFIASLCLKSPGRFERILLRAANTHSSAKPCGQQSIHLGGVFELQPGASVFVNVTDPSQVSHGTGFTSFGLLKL

[5] = biological target: T2, cynomolgus monkey CCR8; assay: KinExA, cell line overexpressing monkey CCR8; monkey CCR8 cell line
Description: To 200 mg of PMMA hard beads was added 30 μg of Goat Anti-Human IgG Fc antibody, and the mixture was supplemented with a coating solution to 1.0 mL, with a buffer composition of 1×PBS, pH7.4, to ensure that the beads were completely suspended in the solution. After being spun at room temperature for 2 h, the beads were either allowed to settle naturally or centrifuged briefly at low speed, and the supernatant was removed. 1 mL of blocking buffer (1×PBS, pH7.4, containing 10 mg/mL BSA) was added to ensure that the beads were resuspended in the blocking solution, and the beads were spun at room temperature for 1 h. An appropriate concentration of PR005565, PR006155 or PR006166 was used as the 100% signal value, and PBS blank was used as the background value. The net signal values were detected using 0.5 μg/mL Alexa Fluor® 647 Goat Anti-Human IgG. The cell line overexpressing human or monkey CCR8 was collected by centrifugation at 1500 g for 5 min, washed 2 times with 2 PBS and centrifuged at 350 g. The cells were collected in a 1.5 mL centrifuge tube. 10 mL of 0.2 nM PR005565, PR006155 or PR006166 solution was prepared. The total cells were supplemented with 0.2 nM PR005565, PR006155 or PR006166 solution to 0.82 mL, and diluted in a 2-fold gradient with 0.2 nM PR005565, PR006155 or PR006166 as a buffer. […]

T2 sequence (G7NYJ2 entry or part of it): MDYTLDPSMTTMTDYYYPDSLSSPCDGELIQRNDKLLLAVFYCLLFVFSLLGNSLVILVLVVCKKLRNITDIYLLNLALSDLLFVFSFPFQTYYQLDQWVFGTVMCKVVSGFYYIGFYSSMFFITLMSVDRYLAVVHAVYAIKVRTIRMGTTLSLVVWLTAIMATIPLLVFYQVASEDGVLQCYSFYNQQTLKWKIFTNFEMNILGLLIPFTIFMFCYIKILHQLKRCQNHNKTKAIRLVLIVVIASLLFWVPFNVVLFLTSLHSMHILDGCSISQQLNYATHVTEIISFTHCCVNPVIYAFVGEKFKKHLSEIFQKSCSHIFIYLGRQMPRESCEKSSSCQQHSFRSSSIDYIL

B1: PR005565 (antibody, human IgG1, kappa)
heavy: not shown
light: DIVMTQSPLSLPVTLGQPASISCRSSKSLLHSNAKIYLYWFQQRPGQSPRLLIYRMSNLASGVPDRFSGSGSGTDFTLKISRVEAEDVGVYYCMQHLEYPLTFGQGTKLEIKRTVAAPSVFIFPPSDEQLKSGTASVVCLLNNFYPREAKVQWKVDNALQSGNSQESVTEQDSKDSTYSLSSTLTLSKADYEKHKVYACEVTHQGLSSPVTKSFNRGEC
notes: IgG1 constant region; same VH/VL as PR004666
MFI [1]: 212
EC50 [2]: 760 pM
MFI [3]: 219
MFI [4]: 241
Kd [5]: 177 pM
